The supplement of paper PMC9732359
± gives the uncertainty stated by the source.

Experiment: protein stability index of a GFP-peptide fusion (yeast GPS) (PSI 1-4); higher = more stable; sorted into four equal gates, so the index is relative within each strain
Summary of the method: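 Tiled 17-residue yeast protein peptides were fused downstream of GFP in a plasmid that also expresses Cherry, and the pooled library was carried in yeast. Mid-log cultures in leucine-free medium were sorted into four equal gates by GFP/Cherry fluorescence ratio, and plasmids from each gate were PCR-amplified and Illumina-sequenced, with reads assigned to strains by barcodes. The protein stability index for each peptide was each gate's read frequency times its gate number, summed.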

Sequence | protein stability index (doa10∆) | protein stability index (pdr5∆) | protein stability index (san1∆) | protein stability index (ubr1∆)
IPRNSPLSDLKKRSQAK [RPC82] | 2.65 ± 0.26 | 3.17 ± 0.22 |  | 
IGAAELNENARELEQIK [SNF12] | 3.18 ± 0.081 | 3.18 ± 0.067 | 2.84 ± 0.12 | 3.33 ± 0.05
DSIASVLSPDSNIMSDS [GAL11] | 2.74 ± 0.1 | 2.98 ± 0.073 | 3.03 ± 0.064 | 3.09 ± 0.099
LLNTDHTLDPSLLESGS [RPO21] | 2.93 ± 0.085 | 2.94 ± 0.099 | 2.99 ± 0.079 | 3.17 ± 0.059
GTPKTDSFIFDGTAKEV [MED4] | 2.32 ± 0.041 | 2.43 ± 0.046 | 2.58 ± 0.071 | 2.65 ± 0.045
SYYELETIIFDSELNRA [RRI1] | 2.96 ± 0.11 | 3.13 ± 0.075 | 2.97 ± 0.056 | 2.93 ± 0.056
PNEFEIQLSTVNRQSPL [RGR1] | 2.19 ± 0.063 | 2.65 ± 0.057 | 2.69 ± 0.054 | 2.45 ± 0.055
ALFVFYSPNTLGHPDNY [COB] | 1.39 ± 0.09 | 1.36 ± 0.069 | 2.06 ± 0.11 | 1.87 ± 0.054
VYLTAVLEYLAAEILEL [HTA1] | 2.47 ± 0.12 | 2.43 ± 0.1 | 2.21 ± 0.09 | 2.61 ± 0.075
PSLEVASEYIETLGLKY [FAS1] | 3.02 ± 0.069 | 3.3 ± 0.082 | 3.21 ± 0.07 | 3.05 ± 0.067
EQKNTAKEELNGLKDQL [YIL149C/MLP2] | 3.19 ± 0.1 | 3.32 ± 0.16 | 3.12 ± 0.054 | 3.31 ± 0.07
PRVKGFKMNEIVPLHSP [SEC65] | 2.89 ± 0.087 | 3.01 ± 0.12 | 3.09 ± 0.079 | 2.87 ± 0.066
TGAYIANRVTDKLTRVH [PRE3] | 1.57 ± 0.068 | 1.76 ± 0.059 | 1.59 ± 0.083 | 1.54 ± 0.056
VTIIEPKEEEPILAPSV [RPS3] | 3.09 ± 0.13 | 2.59 ± 0.22 | 3.01 ± 0.14 | 2.67 ± 0.13
AGVLNGTLEYGTCFGGS [RET1] | 2.97 ± 0.051 | 2.91 ± 0.057 | 2.99 ± 0.051 | 3.08 ± 0.043
QGEVGAVFIVPKILIRE [SWP82] | 2.03 ± 0.14 | 2.36 ± 0.21 | 1.69 ± 0.15 | 2.13 ± 0.2
LAHVDQIVDIRNKRAVQ [YJL039C/NUP192] | 2.35 ± 0.13 | 2.55 ± 0.12 | 2.76 ± 0.12 | 2.71 ± 0.13
WRKWNVKVNHNEKRYAT [RPL4A] | 2.36 ± 0.24 | 2.94 ± 0.16 | 1.59 ± 0.13 | 1.94 ± 0.23
ISELPPQIRQEIEQLDQ [YGL172W/NUP49] | 2.98 ± 0.084 | 3.06 ± 0.061 | 2.65 ± 0.088 | 3.06 ± 0.049
NKLMEKDFQVNKEIKPY [SIR4] | 3.35 ± 0.059 | 3.38 ± 0.054 | 3.12 ± 0.059 | 3.28 ± 0.047
SSKTSQPKPLFSFGKSD [YOR098C/NUP1] | 2.16 ± 0.043 | 2.4 ± 0.027 | 2.19 ± 0.047 | 2.16 ± 0.035
TKIDMPIKNRKNDTHYL [BRN1] | 3.04 ± 0.07 | 3.05 ± 0.075 | 2.93 ± 0.055 | 2.94 ± 0.053
QDSIFQRIIADLSADKP [SRB8] | 2.63 ± 0.046 | 2.56 ± 0.057 | 2.59 ± 0.048 | 2.52 ± 0.032
TDLPIETAAMASLALAH [RPN1] | 1.5 ± 0.046 | 1.66 ± 0.043 | 1.58 ± 0.063 | 1.43 ± 0.045
DSYGQGSMTKTWYVGNS [SSN2] | 2.94 ± 0.13 | 3.09 ± 0.16 | 3.34 ± 0.16 | 3.05 ± 0.088
KLFTTNELMRWPIVQKT [RPN5] | 1.79 ± 0.096 | 1.77 ± 0.078 |  | 1.48 ± 0.044

Sequence | protein stability index (doa10∆) | protein stability index (pdr5∆) | protein stability index (san1∆) | protein stability index (ubr1∆)
SYEKNEDHVEDHRKRKK [LIN1] | 3.25 ± 0.1 | 3.36 ± 0.1 | 3.38 ± 0.084 | 3.21 ± 0.054
KKRFDEFMAGFNIISMT [SMC4] | 2.64 ± 0.097 | 2.52 ± 0.11 | 2.87 ± 0.096 | 2.14 ± 0.072
IIKLVEGLANDPENKVP [RPS12] | 2.01 ± 0.086 | 1.77 ± 0.065 | 2.25 ± 0.092 | 2.08 ± 0.09
AAGVERLIFYPDEYEQL [PRE3] | 2.96 ± 0.14 | 2.86 ± 0.13 | 3.1 ± 0.093 | 2.69 ± 0.16
ERFQVMVLRKQKRYTVK [RPL14A] | 2.37 ± 0.12 | 2.19 ± 0.1 | 2.21 ± 0.24 | 2.71 ± 0.11
ENYEGKQDKTLQKVENQ [YIL149C/MLP2] | 3.2 ± 0.18 | 3.29 ± 0.14 | 2.8 ± 0.17 | 3.21 ± 0.21
LSKMENVNLDDYPDDSG [NAS6] | 2.75 ± 0.11 | 3.02 ± 0.11 | 2.83 ± 0.088 | 3.05 ± 0.091
QRSNISTAIKSLVALGI [CDC53] | 1.86 ± 0.047 | 2.82 ± 0.054 | 2.82 ± 0.049 | 2.48 ± 0.037
LEQFMERNNIGEICKNY [YDL116W/NUP84] | 2.69 ± 0.11 | 2.6 ± 0.076 | 2.72 ± 0.14 | 2.44 ± 0.069
NEDENIQLIKILNSHFD [YJL041W/NSP1] | 2.77 ± 0.052 | 2.98 ± 0.056 | 3.142 ± 0.03 | 2.85 ± 0.037
KESIVLPTVGFDFIKDN [YOR098C/NUP1] | 2.39 ± 0.14 | 2.65 ± 0.11 | 3.05 ± 0.16 | 2.83 ± 0.07
MATPSFGNSSPQLTFTH [YML103C/NUP188] | 2.75 ± 0.12 | 2.1 ± 0.068 | 2.83 ± 0.067 | 2.73 ± 0.062
FRGNISQPKIGYGSNKK [RPL32] | 2.88 ± 0.094 | 2.88 ± 0.06 | 2.88 ± 0.067 | 2.89 ± 0.049
SAKPSQIPTVSSPLGFE [SIR4] | 3.14 ± 0.064 | 2.98 ± 0.058 | 2.85 ± 0.068 | 3.03 ± 0.047
LKILKQVMEEKLDENNA [PUP2] |  |  | 2.8 ± 0.23 | 
SVKKAGASINSMKANTS [ARP7] | 2.07 ± 0.052 | 2.46 ± 0.05 | 2.42 ± 0.054 | 2.25 ± 0.037
IRENKVTYSRVSKKVDV [BRN1] | 2.76 ± 0.1 | 2.93 ± 0.11 | 2.94 ± 0.081 | 3.04 ± 0.087
DELMVIYISNLVRSIIA [RPN8] | 2.44 ± 0.28 | 3.22 ± 0.17 |  | 3.24 ± 0.11
EDPVTVEYLTRYVAGVQ [PRE6] | 2.39 ± 0.058 | 2.39 ± 0.07 | 2.54 ± 0.051 | 2.54 ± 0.067
LEEITQYEHLIKGIREY [YDL116W/NUP84] | 2.35 ± 0.22 | 3.07 ± 0.13 | 2.94 ± 0.2 | 2.81 ± 0.14
AALDLSHTQNIGHLIKT [SMC2] | 2.88 ± 0.083 | 2.47 ± 0.063 | 2.27 ± 0.087 | 2.72 ± 0.046
FRNPTPLLSNYASKINR [RGR1] | 1.44 ± 0.058 | 1.6 ± 0.045 | 1.34 ± 0.11 | 1.66 ± 0.048
PNRIKLSKEVPFSYLID [SRB5] | 2.44 ± 0.062 | 2.15 ± 0.058 | 1.98 ± 0.1 | 2.12 ± 0.06
GLQNVRKVRTKKWKKYW [SWP82] | 3.6 ± 0.2 |  | 3.26 ± 0.25 | 
NGSEKVLIAQERSAGNI [RPB2] | 3.1 ± 0.17 | 3.44 ± 0.21 | 3.12 ± 0.12 | 3.06 ± 0.061
RFKYAPGTIVLYAERVQ [RPS3] | 1.61 ± 0.072 | 1.65 ± 0.062 | 1.56 ± 0.1 | 1.84 ± 0.093
